# According to paper doi:10.1101/2023.10.24.563710 (bioRxiv, 2023):
# B1: P116 ectodomain (residues 30-957), C-terminally shortened and HIS-tagged (domain or fragment, Mycoplasma pneumoniae, UniProt P75556 30-957, looked up)
# chain: NKTHQVEHESEQSDFQDIRFGLNSVKLPKAQPAAATRITVENGTDKLVNYKSSPQQLFLAKNALKDKLQGEFDKFLSDAKAFPALTADLQEWVDQQLFNPNQSFFDLSAPRSNFTLSSDKKASLDFIFRFTNFTESVQLLKLPEGVSVVVDSKQSFDYYVNASAQKLLVLPLSLPDYTLGLNYMFDHITLNGKVVNKFSFNPFKTNLNLAFSNVYNGVDVFEAQKNLVGKGKYLNTHVKAEDVKKDVNANIKNQFDIAKIIAELMGKALKEFGNQQEGQPLSFLKVMDKVKEDFEKLFNLVRPGLGKFVKDLIQSSSQAENKITVYKLIFDNKKTILNLLKELSIPELNSSLGLVDVLFDGITDSDGLYERLQSFKDLIVPAVKTNEKTAALSPLIEELLTQKDTYVFDLIQKHKGILTNLLKNFLADFQKSTPFMADQVAIFTELFDNEGAFDLFGEADFVDKIAELFLTKRTVKNGEKIETKDSLLVTSLKSLLGEKVAALGDLLDSYIFKNELLNRSVEVAKAEAKDTKGATDYKKEQAKALKKLFKHIGENTLSKTNLDKITLKEVKNTENVELEETETTLKVKKLDVEYKVELGNFEIKNGLIKAMLEFLPDTKDLETTLDKLLFKGESYKAMKDKYIKEGFPGYGWAKGVVPGAFESIENTFKSAIDKTKSIRDLFGDMLFGNDLSSVKETDSFITLGGSFDIKYGGENLNVLPAYYSLINSEIGYQIIGVDTTIDATKVKVELKNKEYKGKSPAINGQVKLSQSFFNVWTNMFDSITKQIFQKKYEFKDNIQVFARNEDNTSRLELDISDPEQRVIPFAFVDGFGIQLKAVDKNITKEAGNTEPKSPVIQLYEALNKEKDQKQQSKQSPKQLDTKTQLGYLLKLGDNWSKDDYKSLIDDTIINNNYLEASFNSKITVDRLG
# B2: ΔN-P116 (residues 246-818), truncated N-terminal domain and F-loop (domain or fragment, Mycoplasma pneumoniae, UniProt P75556 246-818, looked up)
# chain: GVDVFEAQKNLVGKGKYLNTHVKAEDVKKDVNANIKNQFDIAKIIAELMGKALKEFGNQQEGQPLSFLKVMDKVKEDFEKLFNLVRPGLGKFVKDLIQSSSQAENKITVYKLIFDNKKTILNLLKELSIPELNSSLGLVDVLFDGITDSDGLYERLQSFKDLIVPAVKTNEKTAALSPLIEELLTQKDTYVFDLIQKHKGILTNLLKNFLADFQKSTPFMADQVAIFTELFDNEGAFDLFGEADFVDKIAELFLTKRTVKNGEKIETKDSLLVTSLKSLLGEKVAALGDLLDSYIFKNELLNRSVEVAKAEAKDTKGATDYKKEQAKALKKLFKHIGENTLSKTNLDKITLKEVKNTENVELEETETTLKVKKLDVEYKVELGNFEIKNGLIKAMLEFLPDTKDLETTLDKLLFKGESYKAMKDKYIKEGFPGYGWAKGVVPGAFESIENTFKSAIDKTKSIRDLFGDMLFGNDLSSVKETDSFITLGGSFDIKYGGENLNVLPAYYSLINSEIGYQIIGVDTTIDATKVKVELKNKEYKGKSPAINGQVKLSQSFFNVWTNMFDSITKQIFQ
# Molecular target: the molecule itself
# Assay: cryo-EM structure
row,Protein,stoichiometry N
1,B1,2
2,B2,2
